Measured values: article PMC5434536, “ING3 promotes prostate cancer growth by activating the androgen receptor” (BMC Medicine, 2017)

Biological target: T1, HA-tagged TIP60 (pCIN4-FLAG-HA-TIP60) (UniProt Q92993 1-513)
T1 construct: TIP60 from the plasmid pCIN4-FLAG-HA-TIP60 (gift from Dr. Wei Gu)
Assay: co-IP; cells co-transfected with AR, TIP60 and increasing amounts of ING3 plasmid + 10 nM MB for 24 h; AR or TIP60 immunoprecipitated with anti-AR or HA-affinity beads
Details: partners not purified

T1 sequence (Q92993 whole entry): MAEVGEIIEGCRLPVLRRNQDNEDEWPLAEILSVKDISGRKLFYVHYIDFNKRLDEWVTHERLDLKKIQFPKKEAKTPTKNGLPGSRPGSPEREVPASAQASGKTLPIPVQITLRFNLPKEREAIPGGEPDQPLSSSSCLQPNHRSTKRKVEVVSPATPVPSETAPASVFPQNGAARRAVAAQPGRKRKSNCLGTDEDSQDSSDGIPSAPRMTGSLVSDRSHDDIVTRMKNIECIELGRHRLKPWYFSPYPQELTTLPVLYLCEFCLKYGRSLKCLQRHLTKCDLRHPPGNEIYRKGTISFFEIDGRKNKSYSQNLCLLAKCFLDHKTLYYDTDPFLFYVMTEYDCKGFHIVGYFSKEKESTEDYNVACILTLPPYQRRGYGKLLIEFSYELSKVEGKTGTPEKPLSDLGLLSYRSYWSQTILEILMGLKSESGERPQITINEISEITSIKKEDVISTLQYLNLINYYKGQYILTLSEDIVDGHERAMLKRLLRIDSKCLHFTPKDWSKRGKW

B1: Myc-tagged androgen receptor (pCMV-3myc-AR) (receptor, UniProt P10275 1-920, looked up)
chain: MEVQLGLGRVYPRPPSKTYRGAFQNLFQSVREVIQNPGPRHPEAASAAPPGASLLLLQQQQQQQQQQQQQQQQQQQQQQQETSPRQQQQQQGEDGSPQAHRRGPTGYLVLDEEQQPSQPQSALECHPERGCVPEPGAAVAASKGLPQQLPAPPDEDDSAAPSTLSLLGPTFPGLSSCSADLKDILSEASTMQLLQQQQQEAVSEGSSSGRAREASGAPTSSKDNYLGGTSTISDNAKELCKAVSVSMGLGVEALEHLSPGEQLRGDCMYAPLLGVPPAVRPTPCAPLAECKGSLLDDSAGKSTEDTAEYSPFKGGYTKGLEGESLGCSGSAAAGSSGTLELPSTLSLYKSGALDEAAAYQSRDYYNFPLALAGPPPPPPPPHPHARIKLENPLDYGSAWAAAAAQCRYGDLASLHGAGAAGPGSGSPSAAASSSWHTLFTAEEGQLYGPCGGGGGGGGGGGGGGGGGGGGGGGEAGAVAPYGYTRPPQGLAGQESDFTAPDVWYPGGMVSRVPYPSPTCVKSEMGPWMDSYSGPYGDMRLETARDHVLPIDYYFPPQKTCLICGDEASGCHYGALTCGSCKVFFKRAAEGKQKYLCASRNDCTIDKFRRKNCPSCRLRKCYEAGMTLGARKLKKLGNLKLQEEGEASSTTSPTEETTQKLTVSHIEGYECQPIFLNVLEAIEPGVVCAGHDNNQPDSFAALLSSLNELGERQLVHVVKWAKALPGFRNLHVDDQMAVIQYSWMGLMVFAMGWRSFTNVNSRMLYFAPDLVFNEYRMHKSRMYSQCVRMRHLSQEFGWLQITPQEFLCMKALLLFSIIPVDGLKNQKFFDELRMNYIKELDRIIACKRKNPTSCSRRFYQLTKLLDSVQPIARELHQFTFDLLIKSHMVSVDFPEMMAEIISVQVPKILSGKVKPIYFHTQ
notes: androgen receptor from the plasmid pCMV-3myc-AR (gift from Dr. Marja Nevalainen); pCMV-3myc-AR is the only full-length AR plasmid named; also called AR-Myc; Myc-tagged AR; source: HEK293T, transfected, in lysate
  fold increase of the AR-TIP60 association (ratio AR:HA-TIP60) with co-transfected ING3 against without: ~8 fold
